Test system: peptide library, one residue held at a place counted from the S/T acceptor
Assay: relative phosphorylation of the sub-library (ratio to the mean residue at this position); higher = residue favoured
In short: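 Purified recombinant kinases were reacted in 384-well plates with biotinylated degenerate peptide sub-libraries, each having one residue fixed at one position around a central Ser/Thr. The reaction mix contained 50 μM peptide plus 50 μM ATP spiked with γ-32P-ATP and ran for 90 min under kinase-specific conditions. Relative sub-library phosphorylation, taken from densitometry of phosphorimaged streptavidin membrane spots, is a ratio to the mean residue at that position.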

Chain of EIF2AK4, construct: aa191-1024, human (Q9P2K8 191-1024, looked up): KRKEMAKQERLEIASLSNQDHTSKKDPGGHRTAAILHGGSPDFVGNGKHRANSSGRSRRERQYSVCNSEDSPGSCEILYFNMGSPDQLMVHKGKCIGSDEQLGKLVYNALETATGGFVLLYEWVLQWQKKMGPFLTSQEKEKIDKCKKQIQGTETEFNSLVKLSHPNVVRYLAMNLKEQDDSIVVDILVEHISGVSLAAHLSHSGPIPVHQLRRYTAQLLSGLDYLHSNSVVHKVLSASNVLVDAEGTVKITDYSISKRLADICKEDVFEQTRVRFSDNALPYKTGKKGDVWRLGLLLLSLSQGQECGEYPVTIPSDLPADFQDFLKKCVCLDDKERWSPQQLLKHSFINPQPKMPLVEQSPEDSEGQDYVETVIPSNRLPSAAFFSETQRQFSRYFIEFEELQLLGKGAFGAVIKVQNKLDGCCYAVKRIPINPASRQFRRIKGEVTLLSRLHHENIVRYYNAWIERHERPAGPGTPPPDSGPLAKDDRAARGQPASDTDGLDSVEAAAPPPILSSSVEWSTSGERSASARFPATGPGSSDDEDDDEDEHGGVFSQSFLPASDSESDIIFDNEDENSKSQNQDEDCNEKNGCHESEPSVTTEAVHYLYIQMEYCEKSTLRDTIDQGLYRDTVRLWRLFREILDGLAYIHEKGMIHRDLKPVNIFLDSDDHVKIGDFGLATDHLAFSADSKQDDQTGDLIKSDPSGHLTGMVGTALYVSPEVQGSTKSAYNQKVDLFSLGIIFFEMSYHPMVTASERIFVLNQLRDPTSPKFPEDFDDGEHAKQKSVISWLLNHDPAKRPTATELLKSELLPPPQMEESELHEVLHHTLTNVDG
Chain of EIF2AK3, construct: aa536-1116, human (Q9NZJ5 536-1116, looked up): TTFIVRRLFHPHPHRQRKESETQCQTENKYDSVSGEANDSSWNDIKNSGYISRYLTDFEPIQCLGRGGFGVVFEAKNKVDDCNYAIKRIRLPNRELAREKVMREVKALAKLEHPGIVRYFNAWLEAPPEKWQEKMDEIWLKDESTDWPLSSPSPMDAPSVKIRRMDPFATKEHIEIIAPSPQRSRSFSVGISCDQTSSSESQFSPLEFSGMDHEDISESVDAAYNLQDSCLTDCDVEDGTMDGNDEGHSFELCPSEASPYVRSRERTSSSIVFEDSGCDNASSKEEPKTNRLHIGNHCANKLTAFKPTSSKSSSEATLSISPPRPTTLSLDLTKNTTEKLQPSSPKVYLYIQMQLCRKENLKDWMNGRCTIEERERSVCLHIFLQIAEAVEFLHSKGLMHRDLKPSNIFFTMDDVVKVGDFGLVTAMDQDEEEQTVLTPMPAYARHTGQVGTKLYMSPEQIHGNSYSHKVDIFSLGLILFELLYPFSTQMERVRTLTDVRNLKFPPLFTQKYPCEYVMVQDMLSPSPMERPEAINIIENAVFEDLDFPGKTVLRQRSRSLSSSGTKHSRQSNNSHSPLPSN
Chain of EEF2K, construct: Full length, human (O00418 whole entry, looked up): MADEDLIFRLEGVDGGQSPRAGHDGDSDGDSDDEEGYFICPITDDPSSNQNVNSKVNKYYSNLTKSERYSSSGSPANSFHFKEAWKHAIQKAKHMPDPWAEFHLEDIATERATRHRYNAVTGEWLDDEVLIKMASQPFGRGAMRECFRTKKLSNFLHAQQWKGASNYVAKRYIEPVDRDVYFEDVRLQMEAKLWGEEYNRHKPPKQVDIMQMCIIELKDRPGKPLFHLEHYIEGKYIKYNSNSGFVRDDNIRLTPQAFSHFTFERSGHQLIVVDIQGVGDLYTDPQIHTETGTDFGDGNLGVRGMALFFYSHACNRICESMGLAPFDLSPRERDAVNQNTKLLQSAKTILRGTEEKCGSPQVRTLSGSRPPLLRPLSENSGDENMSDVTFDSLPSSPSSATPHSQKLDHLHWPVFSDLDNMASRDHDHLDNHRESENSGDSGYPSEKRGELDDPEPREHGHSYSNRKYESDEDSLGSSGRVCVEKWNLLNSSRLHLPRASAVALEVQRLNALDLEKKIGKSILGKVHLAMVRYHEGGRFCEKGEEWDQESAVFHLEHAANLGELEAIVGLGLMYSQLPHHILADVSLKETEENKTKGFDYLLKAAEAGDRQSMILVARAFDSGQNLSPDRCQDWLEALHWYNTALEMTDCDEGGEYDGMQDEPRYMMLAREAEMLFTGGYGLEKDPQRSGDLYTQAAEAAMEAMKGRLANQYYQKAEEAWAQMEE

EEF2K, construct: Full length, human (from UniProt O00418)
relative phosphorylation
Conditions	at +1	at +2	at +3	at +4	at -1	at -2	at -3	at -4	at -5
A fixed	1.46	0.748	0.733	0.852	1.3	1.1	0.971	1.01	1.08
D fixed	0.421	0.233	0.609	0.742	1.24	1.24	1.14	0.912	0.748
E fixed	1.5	0.236	0.618	0.644	1.25	1.91	1.13	0.794	0.718
F fixed	0.935	1.16	0.583	0.718	0.881	0.935	0.971	1.61	1.17
G fixed	0.447	0.773	0.679	1.08	1.14	1.13	1.32	1.18	1.07
H fixed	0.864	1.31	0.766	1.28	1.08	0.929	0.971	0.878	0.873
I fixed	1.4	0.647	0.417	0.651	0.598	0.739	0.945	0.932	1.02
K fixed	0.992	2.31	3.25	2.03	0.978	0.631	0.975	1.11	1.24
L fixed	1.09	0.565	0.477	0.643	0.93	0.751	0.975	1.04	0.892
M fixed	1.13	0.909	0.504	0.799	1.05	0.848	0.978	1.17	1.1
N fixed	0.551	0.695	0.918	1.08	1.04	0.655	1.09	0.901	0.975
P fixed	0.253	0.361	0.337	0.96	0.96	1.57	1.08	0.889	1.03
Q fixed	1.33	0.965	0.88	1.07	0.983	1.06	0.893	0.809	0.847
R fixed	1.04	3.13	4.55	1.91	1.14	0.821	1.04	1.08	1.18
V fixed	1.72	0.776	0.537	0.665	0.567	0.833	0.848	0.876	0.993
W fixed	0.885	0.684	0.563	1.1	0.806	0.921	0.79	0.869	1.06
Y fixed	0.989	1.49	0.581	0.762	1.06	0.918	0.886	0.939	1.02
pThr fixed	0.777	0.601	0.648	1.05	0.619	0.91	1.27	0.982	1.29
pTyr fixed	1.85	0.381	0.882	0.738	1	2.03	1.3	0.754	1.47

EIF2AK3, construct: aa536-1116, human (from UniProt Q9NZJ5)
relative phosphorylation
Conditions	at +1	at +2	at +3	at +4	at -1	at -2	at -3	at -4	at -5
A fixed	0.888	1.08	0.836	0.863	0.745	0.615	1.02	1.02	1.07
D fixed	0.348	0.419	0.491	0.684	0.71	3.5	1.61	1.18	1
E fixed	0.676	0.277	0.555	0.678	0.62	3	1.23	0.94	0.712
F fixed	1.08	0.921	1.09	0.92	1.21	1.22	1.04	1.05	1.32
G fixed	1.02	1.14	1.89	1.14	0.458	0.748	0.825	1.05	0.984
H fixed	0.898	1.28	1.31	1.12	1.21	0.712	0.911	1.08	1.17
I fixed	1.05	0.748	0.703	0.838	1.2	0.527	0.819	0.774	0.837
K fixed	1.12	1.06	1.09	1.28	1.19	0.472	0.798	0.942	0.996
L fixed	0.907	0.609	0.8	0.822	1.11	0.877	1.06	0.79	1.01
M fixed	1.6	0.823	0.814	0.871	1.22	0.942	1.06	0.956	0.9
N fixed	0.86	1.12	0.821	0.95	0.879	0.698	0.856	0.788	0.788
P fixed	0.245	0.662	1.48	1.24	0.582	0.429	0.749	0.871	0.837
Q fixed	1.43	0.719	0.778	0.865	0.837	0.615	0.767	0.751	0.713
R fixed	2.11	2.2	1.43	1.53	1.34	0.576	0.934	1.1	1.06
V fixed	0.92	0.709	0.664	0.78	1.25	0.544	0.839	0.825	0.769
W fixed	0.809	1.44	1.25	1.3	1.07	0.892	1.42	1.66	1.49
Y fixed	1.04	1.79	0.999	1.12	1.36	0.629	1.06	1.22	1.34
pThr fixed	0.47	0.307	0.402	0.715	0.478	1.31	1.05	0.722	0.848
pTyr fixed	0.828	0.387	0.715	0.796	0.726	0.527	1.05	0.682	0.847

EIF2AK4, construct: aa191-1024, human (from UniProt Q9P2K8)
relative phosphorylation
Conditions	at +1	at +2	at +3	at +4	at -1	at -2	at -3	at -4	at -5
A fixed	0.622	0.832	0.837	0.891	0.732	0.958	0.968	1.01	1.07
D fixed	0.335	1.1	0.504	0.75	1.22	2.28	1.62	1.47	1.12
E fixed	0.537	0.351	0.539	0.788	0.894	2.2	1.68	1.16	1.06
F fixed	2.06	0.645	0.948	0.945	0.836	1.18	0.891	0.86	1.07
G fixed	0.757	0.811	2.04	1.16	1.03	1.02	0.924	1.1	1.06
H fixed	1.04	1.8	1.02	0.969	1.12	0.964	0.901	1.18	1.17
I fixed	0.858	0.689	0.699	0.896	0.635	0.533	0.76	0.77	0.823
K fixed	0.724	0.717	1.11	1.08	0.78	0.555	0.695	0.945	1.04
L fixed	0.621	0.631	0.75	0.976	1.15	0.693	1.02	0.829	0.726
M fixed	1.68	0.59	0.826	0.973	1.11	1.09	1.08	0.846	0.825
N fixed	0.933	0.841	0.829	0.867	1.38	1.21	0.959	1.04	0.923
P fixed	0.162	0.475	1.9	1.07	0.629	0.643	0.699	0.825	0.824
Q fixed	1.28	0.611	0.774	0.811	1.26	0.968	0.976	0.997	0.881
R fixed	1.03	1.98	1.28	1.2	1.08	0.654	0.844	0.882	1.26
V fixed	0.996	0.773	0.74	0.849	0.961	0.52	0.727	0.838	0.926
W fixed	1.24	1.29	0.998	1.62	1.04	0.698	1.16	1.25	1.25
Y fixed	2.13	2.85	1.2	1.16	1.13	0.828	1.1	1	0.975
pThr fixed	0.715	0.592	0.686	0.736	0.803	1.16	0.969	1.03	0.724
pTyr fixed	0.656	0.789	0.83	1.55	1.43	0.652	1.01	0.867	0.881

Source: the supplement of paper PMC9876800
